One may read the Kd as the free concentration of one partner at which half of the binding sites on the other are occupied at equilibrium, for simple one-to-one binding.

Consider five molecules from article PMC11893383 (Frontiers in Immunology, 2025).

Assay [1] deals with T1, SARS-CoV-2 wild-type (WT) spike trimer (SARS-CoV-2, wild type (Wuhan-Hu-1 …, UniProt P0DTC2)).
T1 construct: also called spike protein
The assay can be described thus: ELISA. As to conditions: both partners purified. Background: An ELISA detects its analyte on a solid surface through an enzyme-linked reagent.

The target of assay [2] is T2, SARS-CoV-2 Omicron B.1.1.529 receptor-binding domain (RBD), His-tagged (SARS-CoV-2 Omicron B.1.1.529 (BA.1), strain).
T2 construct: also called B.1.1.529 RBD; RBD Omicron B.1.1.529
Kind of assay: BLI. As to conditions: both partners purified.

B1: AB6-17 (antibody, V domains shown)
VH: QLQLQESGPGLVESSETLSLTCTVSSGSISRSTYYWGWIRQPPGKGMEWIGSISSGGSTYYNPSLNSRVTISIDTSKNQFSLKLRSVTAADTAVYYCARALQWPSPRIDYWAQGTLVTVSS
VL: DIQMTQSPSSLSASVGDRVTITCRASQSISSYLNWYQHKPGKAPKLLIYAASSLESGVPSRFTGSGSGTDFTLTIDSLQPEDFATYYCQQSYSTPLFTFGPGTTVDIK
With B1, in assay [1], the binding result is “binds”.

B2: AB5-20 (antibody, V domains shown)
VH: QVQLVESGGGVVQPGRSLRLSCTASGFTFRHYGLHWVRQAPGKGLEWVAVILYDGSDEDYRDSVKGRFTISRDNSKNTLYLQMNSLRPEDTAVYYCAKQSGPYCSGGNCYSGHFDYWGQGTPVSVSS
VL: DIQMTQSPSSLSASVGDRVTITCQASQDISKSLSWYEQKPGKAPRLLIFEASNLETGVPSRFSGSGSGTSFSFTISSLQPEDFATYYCQQYDNVPLTFGGGTKVERK
As for B2, the binding result in assay [1] was “binds”.

B3: AB5-21 (antibody, V domains shown)
VH: EVQLVESGGGLVQPGGSLRLSCAASGLIVSSNYMHWVRQAPGEGLEWVSVIYSGGSTFYADSVKGRFTISRDNSKNTLYLQMNSLRAEDTAVYYCARGLGDPMDVWGQGTTVTVSS
VL: DIQLTQSPSFLSASVGDRVTITCRASQGISSDLAWYQQKPGKAPKLLINAASTLQNGVPSRFSGSGSGTEFTLSISSLQPEDFATYYCQQLNSYPPKLTFGGGTKVEIK
Consider B3, for which the affinity in assay [2], expressed as Kd, was 30 nM.

B4: AB5-16 (antibody, V domains shown)
VH: QALMVQSEAAVKKPGASVKVSCKATGDAFSNHYLHWLRQAPGQGLEWLGIINPGAGSTTYAQKFQGRLTVTTDTSTNTVYMELSSLRSDDTAVYYCARDGAFIPSSYYYGMDVWGQGTTVTVSS
VL: EIVLTQSPGTLALSPGERATLSCRASQSVSSSYLAWYQQKPGQAPRLLIYGASSRATGVPDRFSGSGSGTDFTLTVSSLEPEDFAVYYCQQREAFGQGTKVEVK
In the case of B4, the binding result in assay [1] is on record as “binds”.

B5: AB5-18 (antibody, V domains shown)
VH: EVQLVESGGGLVQPGGSLRLSCAASGITVTSNYMTWVRQAPGKGLEWVSLIYAGGSTFYADSVKGRFTVSRDKSKNTLYLQMNSLRGEDTAVYYCARDLQEAGGMDVWGQGTTVTVSS
VL: ENVLTQSPGTLSLSPGERATLSCRASQFVSSTFLAWYQQKPGQAPRLLMYGASNRATDIPDRFSGGGSGTDFTLTISRLEPEDFAVYYCQQFGSSPFTFGQGTKLEIK
For the molecule B5, the equilibrium dissociation constant (Kd) in assay [2] came out at 3.4 nM.
